From patent US20020076693A1 (published 2002)

Molecular target: T1, recombinant soluble CD4 (UniProt P01730 26-396)
T1 construct: domain: soluble form of recombinant CD4
Test: BIAcore, soluble CD4; row shifted one column to the left

B1: recombinant gp120 of HIV-1 SF2 (ligand)
chain: not shown
notes: domain: gp120; also called gp120 HIV-1 SF2; gp120-SF2
- Ka: 2.1e+08 M⁻¹
- koff: 0.0056 s⁻¹
- kon: 1.15e+06 M⁻¹ s⁻¹
